Data on nine molecules can be found in patent publication US20210030857A1 (NGM BIOPHARMACEUTICALS, published 2021).

Where a chain is given by its changes, count along the chain named.

Assay [1] has as its target T1, human beta klotho expressed on cells (human, UniProt Q86Z14 1-1044).
T1 construct: also called HuKLB overexpressing cells; Human KLB
T1 sequence: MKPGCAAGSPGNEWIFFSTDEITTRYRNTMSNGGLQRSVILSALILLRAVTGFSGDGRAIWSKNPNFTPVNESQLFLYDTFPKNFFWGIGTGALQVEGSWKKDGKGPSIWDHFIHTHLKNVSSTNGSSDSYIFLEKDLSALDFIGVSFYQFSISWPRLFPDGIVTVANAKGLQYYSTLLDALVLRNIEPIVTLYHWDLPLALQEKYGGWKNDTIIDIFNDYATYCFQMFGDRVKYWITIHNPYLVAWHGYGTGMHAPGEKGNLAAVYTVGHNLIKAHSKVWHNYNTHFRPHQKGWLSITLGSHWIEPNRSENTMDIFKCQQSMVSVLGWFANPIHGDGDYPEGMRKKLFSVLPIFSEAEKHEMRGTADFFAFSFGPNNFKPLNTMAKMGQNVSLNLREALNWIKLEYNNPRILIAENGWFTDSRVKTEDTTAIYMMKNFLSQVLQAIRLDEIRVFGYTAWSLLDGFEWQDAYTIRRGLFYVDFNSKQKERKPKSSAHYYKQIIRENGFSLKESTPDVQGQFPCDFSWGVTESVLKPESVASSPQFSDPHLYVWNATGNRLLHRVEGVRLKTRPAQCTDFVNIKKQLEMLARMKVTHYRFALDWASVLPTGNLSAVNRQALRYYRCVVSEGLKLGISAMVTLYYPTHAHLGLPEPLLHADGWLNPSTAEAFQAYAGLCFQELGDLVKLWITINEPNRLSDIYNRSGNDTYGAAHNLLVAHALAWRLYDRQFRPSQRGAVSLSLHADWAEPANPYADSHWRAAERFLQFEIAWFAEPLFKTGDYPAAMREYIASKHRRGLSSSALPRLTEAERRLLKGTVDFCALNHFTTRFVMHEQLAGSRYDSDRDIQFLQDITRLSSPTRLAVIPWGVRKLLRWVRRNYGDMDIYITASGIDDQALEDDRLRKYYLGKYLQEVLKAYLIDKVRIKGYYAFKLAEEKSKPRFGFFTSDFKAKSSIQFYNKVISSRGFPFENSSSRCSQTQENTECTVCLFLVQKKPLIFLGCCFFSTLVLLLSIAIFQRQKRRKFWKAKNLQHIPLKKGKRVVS
The assay is described as follows: FACS competition on HuKLB-overexpressing cells; row antibody unlabelled; competitor 3I13-Alexa488 (labelled, EC10); MFI of the label. As to the method:
(§1) For example, for competition binding assays by FACS analysis, antibody standards were prepared that were conjugated to a fluorochrome using either A488 or A647 antibody labeling kit (Invitrogen) following manufacturer's instructions. A dose titration of the conjugated antibody standard was evaluated using HuKLB overexpressing cells. The plateau of the maximal signal of antibody binding is EC=100 and the background signal is EC=0. Competition by FACS against the fluorochrome labeled antibody was performed by pre-incubating HuKLB overexpressing cells with hybridoma supernatants for 15 minutes at room temperature. Without washing, an EC=10 concentration of A488 or A647 labelled antibody standard was added. EC=10 for an individual antibody was determined by 10% of signal using the maximum signal as (100%) and background signal as (0%). After 30 minutes at 4° C., cells are washed and analyzed by FACS. […] A partial competing antibody is one sample that show signal between labelled antibody alone and background. Antibodies that show complete competition against the same standard antibody are considered to be in the same bin.
(§2) Representative results are shown in Table 12 below reported as mean fluorescence intensity (MFI).

In assay [2] the target is T1, human beta klotho expressed on cells. The assay is described as follows: FACS competition on HuKLB-overexpressing cells; row antibody unlabelled; competitor 5H23-Alexa647 (labelled, EC10); MFI of the label. As to the method:
as §1, §2

The target of assay [3] is T2, human beta klotho / human FGFR1c receptor complex on cells (human, UniProt Q86Z14 1-1044; P11362 22-822). Put plainly: cell-based or functional assay.
The target of assay [4] is T2, human beta klotho / human FGFR1c …. The assay is described as follows: cell-based or functional assay. This is another data set of the same source.
Assay [5] has as its target cynomolgus beta klotho / human FGFR1c receptor complex on cells (cynomolgus monkey (Macaca …)). Put plainly: cell-based or functional assay.

Chain of cynomolgus beta klotho / human FGFR1c receptor complex on cells (cynomolgus monkey (Macaca …)) (chain, as listed by the source limits assumed, chain 1 of 2): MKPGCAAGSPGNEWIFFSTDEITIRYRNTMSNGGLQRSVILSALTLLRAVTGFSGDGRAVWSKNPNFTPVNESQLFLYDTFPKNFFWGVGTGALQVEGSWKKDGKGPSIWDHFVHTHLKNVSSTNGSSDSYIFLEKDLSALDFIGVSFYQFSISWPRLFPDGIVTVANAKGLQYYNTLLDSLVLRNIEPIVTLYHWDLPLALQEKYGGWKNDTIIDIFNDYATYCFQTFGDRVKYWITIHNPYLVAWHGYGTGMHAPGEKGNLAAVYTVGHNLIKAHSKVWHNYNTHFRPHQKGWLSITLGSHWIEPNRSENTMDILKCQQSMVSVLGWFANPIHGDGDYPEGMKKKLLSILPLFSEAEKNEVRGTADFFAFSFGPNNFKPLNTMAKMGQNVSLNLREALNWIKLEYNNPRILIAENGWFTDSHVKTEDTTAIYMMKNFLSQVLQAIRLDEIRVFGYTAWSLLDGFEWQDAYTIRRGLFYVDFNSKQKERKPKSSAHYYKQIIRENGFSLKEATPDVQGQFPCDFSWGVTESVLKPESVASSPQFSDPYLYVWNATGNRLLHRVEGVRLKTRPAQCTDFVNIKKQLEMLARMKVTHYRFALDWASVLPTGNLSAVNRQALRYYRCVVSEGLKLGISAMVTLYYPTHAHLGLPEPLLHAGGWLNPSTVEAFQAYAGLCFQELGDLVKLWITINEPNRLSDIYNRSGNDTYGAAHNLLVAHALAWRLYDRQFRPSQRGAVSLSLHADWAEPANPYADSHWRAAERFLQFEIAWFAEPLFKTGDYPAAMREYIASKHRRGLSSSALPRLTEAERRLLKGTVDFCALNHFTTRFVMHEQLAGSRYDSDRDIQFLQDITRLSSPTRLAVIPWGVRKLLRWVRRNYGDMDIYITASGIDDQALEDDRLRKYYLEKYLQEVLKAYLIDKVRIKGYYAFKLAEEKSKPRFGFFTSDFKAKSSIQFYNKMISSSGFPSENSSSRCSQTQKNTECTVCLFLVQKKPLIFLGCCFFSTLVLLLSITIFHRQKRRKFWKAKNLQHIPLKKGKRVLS
Chain of cynomolgus beta klotho / human FGFR1c receptor complex on cells (cynomolgus monkey (Macaca …)) (chain, as listed by the source limits assumed, chain 2 of 2): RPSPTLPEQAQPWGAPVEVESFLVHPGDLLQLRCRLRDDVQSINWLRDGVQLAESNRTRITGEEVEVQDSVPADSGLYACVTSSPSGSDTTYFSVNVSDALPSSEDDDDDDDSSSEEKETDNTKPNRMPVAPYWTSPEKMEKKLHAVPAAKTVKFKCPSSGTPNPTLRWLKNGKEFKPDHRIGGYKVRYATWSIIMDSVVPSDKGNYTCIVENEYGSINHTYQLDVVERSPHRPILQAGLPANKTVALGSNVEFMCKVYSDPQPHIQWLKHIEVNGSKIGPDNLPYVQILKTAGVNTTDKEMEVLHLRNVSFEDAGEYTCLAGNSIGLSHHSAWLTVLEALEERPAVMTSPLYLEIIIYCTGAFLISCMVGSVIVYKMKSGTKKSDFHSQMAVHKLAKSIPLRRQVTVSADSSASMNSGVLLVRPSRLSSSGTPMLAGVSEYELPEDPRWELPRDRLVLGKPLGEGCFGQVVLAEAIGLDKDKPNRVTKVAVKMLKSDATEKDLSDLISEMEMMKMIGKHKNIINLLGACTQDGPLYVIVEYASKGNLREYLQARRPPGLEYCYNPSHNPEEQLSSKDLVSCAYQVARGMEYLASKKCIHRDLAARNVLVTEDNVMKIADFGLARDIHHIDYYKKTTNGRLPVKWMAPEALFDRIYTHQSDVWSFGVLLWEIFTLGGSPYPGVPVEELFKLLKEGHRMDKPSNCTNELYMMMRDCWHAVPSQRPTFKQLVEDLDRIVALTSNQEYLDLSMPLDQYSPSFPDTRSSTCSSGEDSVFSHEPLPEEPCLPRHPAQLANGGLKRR

B1: antibody 5F7 (antibody, V domains shown)
VH: QVQPQESGPELVKPGALVKISCKASGYTFTRYDINWVKQRPGQGLEWIGWIYPGDISTKYNEKFKGKATLTADKSSSTAYMQLNSLTSENSAVYFCARSDYYGSRSFVYWGQGTLVTVSA
VL: DIVLTQSPASLAVSLGQRATISCRASKSVSTSGYSYMHWYQQKPGQPPKLLIYLASNLESGVPARFSGSGSGTDFTLNIHPVEEEDAATYYCQHSRELPYTFGGGTKVEIK
notes: Murine monoclonal antibody
Consider B1, for which the “Mean Florescence Intensity (MFI)” value was 28.5 MFI in assay [1] and 2.3 MFI in assay [2]. The “hAdip pERK assay EC50, Experiment - B” value in assay [3] was above 67 nM.

B2: antibody 5H23 (antibody, V domains shown)
VH: B1 VH with P4L, E6Q, R31S, I56G, S77R, N84S, V108A
VL: B1 VL with S35V, Y40N, N57Y, T89I, E97D, P99T, Y100F, T101P, V108L
notes: Murine monoclonal antibody from hybridoma; also called 5H23-Alexa647 (labelled form)
As for B2, in assay [4], the “HEK293 huKLB/R1c reporter assay EC50, Experiment - A” value turned out to be 0.102 nM and the “HEK293 huKLB/R1c reporter assay EC50, Experiment - B” value stood at 0.0342 nM. Further, the “Mean Florescence Intensity (MFI)” value in assay [1] came out at 29.8 MFI. The “Mean Florescence Intensity (MFI)” value in assay [2] stood at 2.3 MFI. For the same molecule, the “hAdip pERK assay EC50, Experiment - B” value in assay [3] was determined as 1.66 nM. For the same molecule, in assay [5], the “HEK293 cynoKLB/R1c reporter assay EC50, Experiment - A” value stood at 0.165 nM and the “HEK293 cynoKLB/R1c reporter assay EC50, Experiment - B” value was found to be 0.218 nM.

B3: antibody 4P5 (antibody, V domains shown)
VH: B1 VH with P4L, E6Q, Q39K, I56D, N84S
VL: B1 VL with V3L, S69R, Q93H, R96G, V108L
notes: Murine monoclonal antibody
On to B3, for which, in assay [4], the “HEK293 huKLB/R1c reporter assay EC50, Experiment - A” value is 0.6 nM and the “HEK293 huKLB/R1c reporter assay EC50, Experiment - B” value is 0.0783 nM. Further, the “Mean Florescence Intensity (MFI)” value in assay [1] stood at 30.1 MFI. In addition, in assay [2], the “Mean Florescence Intensity (MFI)” value was determined as 2.4 MFI. In assay [3], the “hAdip pERK assay EC50, Experiment - B” value was found to be 0.89 nM. Moreover, in assay [5], the “HEK293 cynoKLB/R1c reporter assay EC50, Experiment - A” value worked out at 0.347 nM and the “HEK293 cynoKLB/R1c reporter assay EC50, Experiment - B” value was 0.465 nM.

B4: antibody 1D19 (antibody, V domains shown)
VH: B1 VH with V37M, I56S, Y60F, K63N, G66D, N84S, A92T, V108T
VL: B1 VL with V108L
notes: Murine monoclonal antibody
On to B4, for which the “HEK293 huKLB/R1c reporter assay EC50, Experiment - A” value in assay [4] worked out at 0.62 nM. Further, the “Mean Florescence Intensity (MFI)” value in assay [1] came out at 30.6 MFI; in assay [2], 2.5 MFI. Further, the “hAdip pERK assay EC50, Experiment - B” value in assay [3] was above 67 nM. Moreover, the “HEK293 cynoKLB/R1c reporter assay EC50, Experiment - B” value in assay [5] came out at 0.954 nM.

B5: antibody 5C23 (antibody, V domains shown)
VH: B1 VH with Q39K, I56G, K65E, N84S
VL: B1 VL with A9D, A12T, V108L
notes: Murine monoclonal antibody
Regarding B5, the “Mean Florescence Intensity (MFI)” value came to 29.3 MFI in assay [1] and 2.4 MFI in assay [2]. Further, in assay [3], the “hAdip pERK assay EC50, Experiment - B” value was above 67 nM.

B6: antibody 2L12 (antibody, V domains shown)
VH: B1 VH with P4L, E6Q, Q39K, I56D, N84S
VL: B1 VL with A12P, M37L, R96G, V108L
notes: Murine monoclonal antibody
As for B6, the “HEK293 huKLB/R1c reporter assay EC50, Experiment - A” value in assay [4] was determined as 0.373 nM. In addition, in assay [1], the “Mean Florescence Intensity (MFI)” value was 30.9 MFI. For the same molecule, the “Mean Florescence Intensity (MFI)” value in assay [2] was 3.1 MFI. The “hAdip pERK assay EC50, Experiment - B” value in assay [3] stood at 1.23 nM. In assay [5], the “HEK293 cynoKLB/R1c reporter assay EC50, Experiment - A” value stood at 0.26 nM and the “HEK293 cynoKLB/R1c reporter assay EC50, Experiment - B” value came to 0.41 nM.

B7: antibody 3L3 (antibody, V domains shown)
VH: B1 VH with A16T, R31S, I56G, T58P, N61D, N84S
VL: B1 VL with M37V, S69R, R96G, V108L
notes: Murine monoclonal antibody
In the case of B7, the “HEK293 huKLB/R1c reporter assay EC50, Experiment - A” value in assay [4] came to 0.773 nM. Moreover, the “Mean Florescence Intensity (MFI)” value in assay [1] stood at 28.7 MFI; in assay [2], 4.2 MFI. The “hAdip pERK assay EC50, Experiment - B” value in assay [3] is around 30 nM. Further, the “HEK293 cynoKLB/R1c reporter assay EC50, Experiment - A” value in assay [5] stood at 3.58 nM. The “HEK293 cynoKLB/R1c reporter assay EC50, Experiment - B” value in assay [5] stood at 1.67 nM.

B8: antibody 3N20 (antibody, V domains shown)
VH: QVQLQESGAELARPGASVKLSCKVSGYIFTNYGISWVKQRTGQGLEWIGEIYPRSGNTYYNEKFKGKATLTADMSSSTAYMDLRSLTSEDSAVYFCARHWDGVLDYFDYWGQGTSLTVSS
VL: DIVMTQSPSSLSVSAGEKVTMSCKSSQSLLNSGNQKNYLAWYQQKPGQPPKLLIYGASTRESGVPDRFTGSGSGTDFTLTISSVQAEDLAVYYCLNDHSYPFTFGAGTKLELK
notes: Murine monoclonal antibody
For the molecule B8, the “HEK293 huKLB/R1c reporter assay EC50, Experiment - A” value in assay [4] came to 0.527 nM. Also, the “Mean Florescence Intensity (MFI)” value in assay [1] turned out to be 30.5 MFI. For the same molecule, the “Mean Florescence Intensity (MFI)” value in assay [2] came to 2.4 MFI. For the same molecule, the “hAdip pERK assay EC50, Experiment - B” value in assay [3] is above 67 nM. Moreover, in assay [5], the “HEK293 cynoKLB/R1c reporter assay EC50, Experiment - A” value is 2.46 nM and the “HEK293 cynoKLB/R1c reporter assay EC50, Experiment - B” value was above 10 nM.

B9: antibody 1C17 (antibody, V domains shown)
VH: QVQLQESGPGLVKPSQSLSLTCSVTGYSITSGYYWNWIRQFPGNKLEWMGYINYDGNSNYTPSLKNRISITRDTSKNQFFLKLNSVTPEDTATYYCARKGAYYSNYDSFDVWGTGTTVTVSS
VL: DIKMTQSPSSMYASLGERVTITCKASQDINSYLSWVQQKPGKSPKTLIYRANRLVDGVPSRFSGSGSGQDYSLTISSLEYEDMGIYYCLQYDEFPFTFGSGTKLEIK
notes: Murine monoclonal antibody
With B9, the “Mean Florescence Intensity (MFI)” value in assay [1] came out at 26.7 MFI; in assay [2], 2.4 MFI. Moreover, the “hAdip pERK assay EC50, Experiment - B” value in assay [3] is above 67 nM.
